For 5 molecules, Kd results are on record in PMC2955986 (Journal of thrombosis and haemostasis : JTH, 2010).

The target of one test is TFPI (Homo sapiens) (UniProt P10646). Particulars: cited from earlier work.
The target in test [1] is Soluble tissue factor (residues 1-218). The experiment in a line: fluid phase binding assay.
For test [2] the target is unchanged. The experiment in a line: fluid phase binding assay. The source holds these as a separate data set.
The target of test [3] is Factor X. The experiment in a line: fluid phase binding assay.
Test [4] concerns the target T1, factor X (Homo sapiens, UniProt P00742).
T1 chain: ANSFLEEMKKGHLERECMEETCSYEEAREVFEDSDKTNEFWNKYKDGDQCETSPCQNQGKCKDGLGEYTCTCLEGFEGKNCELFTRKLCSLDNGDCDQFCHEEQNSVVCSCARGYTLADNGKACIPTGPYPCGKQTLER

The target of test [5] is Soluble tissue factor (residues 1-218). The experiment in a line: ELISA. For orientation: An ELISA detects its analyte on a solid surface through an enzyme-linked reagent.
Test [6] deals with T2, Zn^2+-containing protein S (immunoaffinity-purified) (UniProt P07225 42-676).
T2 sequence (looked up): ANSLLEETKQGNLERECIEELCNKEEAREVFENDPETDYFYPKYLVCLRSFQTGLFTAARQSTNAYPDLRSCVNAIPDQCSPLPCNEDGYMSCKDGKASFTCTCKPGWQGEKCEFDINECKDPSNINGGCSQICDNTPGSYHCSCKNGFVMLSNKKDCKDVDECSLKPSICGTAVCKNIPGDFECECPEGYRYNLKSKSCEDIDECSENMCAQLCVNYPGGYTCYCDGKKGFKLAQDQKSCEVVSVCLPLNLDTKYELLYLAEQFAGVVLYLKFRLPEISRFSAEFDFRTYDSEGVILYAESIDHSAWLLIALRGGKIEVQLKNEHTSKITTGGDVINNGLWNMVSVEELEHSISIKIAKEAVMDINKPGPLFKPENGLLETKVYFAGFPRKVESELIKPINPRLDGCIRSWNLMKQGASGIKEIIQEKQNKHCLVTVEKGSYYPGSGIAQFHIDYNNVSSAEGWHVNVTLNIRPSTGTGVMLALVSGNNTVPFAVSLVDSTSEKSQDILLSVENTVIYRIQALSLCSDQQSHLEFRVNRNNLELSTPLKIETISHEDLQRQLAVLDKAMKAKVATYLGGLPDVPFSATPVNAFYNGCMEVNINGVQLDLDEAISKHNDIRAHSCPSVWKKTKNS
The test is described as follows: fluid phase binding assay.

TFPI (Homo sapiens), sequence (P10646 29-304): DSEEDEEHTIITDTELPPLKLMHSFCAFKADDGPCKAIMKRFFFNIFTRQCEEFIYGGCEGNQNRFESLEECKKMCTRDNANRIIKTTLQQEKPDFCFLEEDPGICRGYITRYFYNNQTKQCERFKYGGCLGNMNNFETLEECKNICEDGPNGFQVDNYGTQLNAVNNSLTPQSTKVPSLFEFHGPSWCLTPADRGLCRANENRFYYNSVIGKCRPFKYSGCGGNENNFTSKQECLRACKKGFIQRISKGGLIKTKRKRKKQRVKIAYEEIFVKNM

A word on the Kd: it is the free concentration of one partner at which half of the binding sites on the other are occupied at equilibrium, for simple one-to-one binding. Turning to protein S (from UniProt P07225), in the test with TFPI (Homo sapiens), the Kd is 21 nM.

B1: Zn^2+-containing protein S (immunoaffinity-purified) (natural protein)
chain: T2 sequence (looked up)
As to B1, the Kd in test [1] came out at 41 nM; in test [2] it was 41 nM; with Factor X [3], 127 nM.

B2: protein S (protein)
chain: T2 sequence (looked up)
modifications: Zn2+-containing
Molecule B2 had a Kd with factor X [4] of roughly 130 nM.

B3: Zn^2+-reconstituted commercial protein S (natural protein)
chain: T2 sequence (looked up)
B3 registered a Kd in test [5] of 39 nM.

B4: Full length nonlipidated tissue factor (natural protein, UniProt P13726 33-295, looked up)
chain: SGTTNTVAAYNLTWKSTNFKTILEWEPKPVNQVYTVQISTKSGDWKSKCFYTTDTECDLTDEIVKDVKQTYLARVFSYPAGNVESTGSAGEPLYENSPEFTPYLETNLGQPTIQSFEQVGTKVNVTVEDERTLVRRNNTFLSLRDVFGKDLIYTLYYWKSSSSGKKTAKTNTNEFLIDVDKGENYCFSVQAVIPSRTVNRKSTDSPVECMGQEKGEFREIFYIIGAVVFVVIILVIILAISLHKCRKAGVGQSWKENSPLNVS
As for B4, in test [6], the affinity, expressed as Kd, was 41 nM.
